Experimental data from patent US20210290733A1, “INJECTABLE MICRONIZED HUMAN INSULIN” (ARVEN ILAC SANAYI VE TICARET ANONIM SIRKETI, priority 2018, published 2021).

Tests used:
[1] = Bioactivity test (USP limit, USP 121 Insulin Assays); conditions: for Bioactivity: USP limit min. 15 IU/mg
Procedure: According to one embodiment of the present invention, the composition is prepared by based on USP 121 formula (The United States Pharmacopeial Convention 2015, [121] Insulin Assays). This is important in order to minimize the risk of adverse effects, both local and systemic. It is important that human insulin in the composition is used without extra excipients because, its amino acid sequence and biological activity are the same as those of the human body and are safe and have no toxic or side effects.

[2] = Particle size measurement of human insulin before and after micronization; format: physicochemical
Procedure: According to one embodiment of the present invention, after micronization, the micronized human insulin has a d(0.1) particle size which is less than 5 μm or less than 3 μm or less than 2 μm.
According to one embodiment of the present invention, the micronized human insulin particles were prepared by using supercritical fluid process.

Row | Substance | Bioactivity ([1]; Before Micronization) [IU/mg] | d(0.1) particle size ([2]; Before Micronization) [μm] | d(0.5) particle size ([2]; Before Micronization) [μm] | d(0.9) particle size ([2]; Before Micronization) [μm] | Bioactivity ([1]; After Micronization) [IU/mg] | Protein activity at the end of the micronization process (versus before) ([1]; without any change in protein structure) | d(0.1) particle size ([2]; After Micronization) [μm] | d(0.5) particle size ([2]; After Micronization) [μm] | d(0.9) particle size ([2]; After Micronization) [μm]
1 | human insulin: recombinant human insulin, unmodified primary structure, before micronization | 16.02 | 1.96 | 13.24 | 25.12 |  |  |  |  | 
2 | micronized human insulin: recombinant, unmodified human insulin with particle size reduced by supercritical fluid (SAS) process |  |  |  |  | 34.72 | protein activity increased | 1.654 | 5.273 | 12.54
